# Test: yeast display, Sf9 membrane polyspecificity reagent, FACS + sequencing; frameworks hold sequencing errors
# How it was run: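 Sorting gates, low and high (top ~1%), were placed on anti-HA fluorescence to track expression and on streptavidin fluorescence to track reagent binding. A clone's polyreactivity label is taken from the gate it came out of. The reagent was 10% biotinylated, detergent-solubilized Sf9 membrane, applied for 1 hour at 4 °C to galactose-induced yeast display cells.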
row,Sequence,polyreactivity (PSR sort gate)
1,QVQLVESGGGLVQAGGSLRLSCAASGRIFSLNTMGWYRQAPGKERELVATITKRGGNTYYADSVKGRFTISRDNAKNTVYLQMNSLKPEDTAVYYCAVPRSITYRYGYWGQGTQVTVSS,high polyreactivity
2,QVQLVESGGGLVQAGGSLRLSCAASGRIFSMNAMGWYRQAPGKERELVAGIRKRGGSTYYADSVKGRFTISRDNAKNTVYLQMNSLKPEDTAVYFCAAQPALTYRFYYLGQGTQVTVSS,high polyreactivity
3,QVQLVESGGGLVQAGGSLRLSCAASGRIFSNNAMGWYRQAPGKERELVAAIDSSGDSTNYADSVKGRFTISRDNAKNTVYLQMNSLKPEDTAVYYCNARQSGRRVWQYLYGYWGQGTQVTVSS,high polyreactivity
4,QVQLVESGGGLVQAGGSLRLSCAASGRIFSNYAMGWYRPAPGKESELVAAISRGGGRTFYADSVTGRFTISRDNAKNTVYLQKNSLKPEDTAVYYCATRSYYVKGDYWGQATQVTVSS,high polyreactivity
5,QVQLVESGGGLVQAGGSLRLSCAASGRIFSPYAMGWYRQATGKERELVAAIDWDGGGTYYADSVKGRFTISRDNAKNTVYLQMNSLKPEDTAVYYCAAETDLANGTSPSDYWGQGTQVTVSS,low polyreactivity
6,QVQLVESGGGLVQAGGSLRLSCAASGRIFSRNAMGRYSQAPGKERELVAAIRWRSGSTYYADSVKGRFTISRDNAKNTVYLQMNSLNPEDTAVYYCAASGPGYSRYTQYDSWGQGTQVTESS,high polyreactivity
7,QVQLVESGGGLVQAGGSLRLSCAASGRIFSRNTMGWYRQATGKEREFVAAISQSGGRTYYADSVKGRFTISRDNAKNNVYLQMNSLKPEDTAVYYCAARSRGYDIRYGYWGQGTQVTVSS,high polyreactivity
8,QVQLVESGGGLVQAGGSLRLSCAASGRIFSRYALGWYSPEPGKERELVAAIRSNGGRTYYADSVKGRFTISRDNAKNTVYLQMNSLKPEDTAVYYCAAAGGGKVSYRDYDYWGQGTQVTVSS,high polyreactivity
9,QVQLVESGGGLVQAGGSLRLSCAASGRIFSRYAMGLYRQAPGKERELVAAITWRGGSTYYADSVKGRFTISRDNAKNTVYLEMNSLKPEDSAVYYCAKYGSGGRQLRSDSWVQGTQVTVSS,high polyreactivity
10,QVQLVESGGGLVQAGGSLRLSCAASGRIFSRYAMGRYRQAPGKERELVAAITQSGTSTYYADSVKGRFTISRDNAKNTVYLQMNSLKPEDTAVYYCNAYRQYRYDYWGQGTQVTVSS,low polyreactivity
11,QVQLVESGGGLVQAGGSLRLSCAASGRIFSRYAMGWYRQAPGKERELVATISSGGGTYYADSVKGRFTISRDNAKNTVYLQMNSLKPEDTAVYYCAVQVWYGRYYYWGQGTQVTVSS,high polyreactivity
12,QVQLVESGGGLVQAGGSLRLSCAASGRIFSRYAMGWYRQAPGKERELVATITRRGGSTSYADSVKGRFTISRDNAKNTVYLQMNSLKPEDTAVYYCAAQSFYGIYYGQQDYDYWGQGTQVTVSS,high polyreactivity
13,QVQLVESGGGLVQAGGSLRLSCAASGRIFSRYTMGWYRQAPGKERELVAAISYSGGRTYYADSVKGRFTISRDNAKNTVYLQMYSLKPEDTAVYYCAAPRSVVGAYGFYYWGQGTQVTVSS,high polyreactivity
14,QVQLVESGGGLVQAGGSLRLSCAASGRIFSRYTMGWYRQAPGKERELVAGITRGGGSTYYADSVKGRFTISRDNAKNTVYLQMNSLKPEDTAVYYCAATFAYHDGDYWGQGTQVTVSS,low polyreactivity
15,QVQLVESGGGLVQAGGSLRLSCAASGRIFSSNAMGWYRQAPGKEREFVAAISWRTGSTYYADSVKGRFTISRDNAKNTVYLQMNSLKPEDTAVYYCAAVYWTFWGTIATRYDYWGQGTQVTVSS,high polyreactivity
16,QVQLVESGGGLVQAGGSLRLSCAASGRIFSSNAMGWYRQAPGKERELVAAITSGGSTYADSVKGRFTISRDNAKNTVYLQMNSLKPEDTAVYYCAKDGPGGGTRIYDYWGHGTQVTVSS,high polyreactivity
17,QVQLVESGGGLVQAGGSLRLSCAASGRIFSSYAMGWSRQAPGKERELVAAISSSGGNTYYADSVKGRFTISRDNAKNTVYLQMNSLKPEDTAVYYCNTRWVHRDWYDYWGQGTQVTVSS,high polyreactivity
18,QVQLVESGGGLVQAGGSLRLSCAASGRIFSSYAMGWYRQAPGKERELVAGITRGGSTYADSVKGRFTISRDNAKNTVYLQMNSLKPEDTAVYYCAADALIATPSWGKYNYWGQGTQVTVSS,high polyreactivity
19,QVQLVESGGGLVQAGGSLRLSCAASGRIFSSYAMGWYRQAPGKERELVAVISQRGGSTSYADSVKGRFTISRDNAKNTVYLQMNSLKPEDTAVYYCARRPGKGNNYWGQGTQVTVSS,high polyreactivity
20,QVQLVESGGGLVQAGGSLRLSCAASGRIFSSYTMGWYRQAPGKERELVAAISWRGGSTYYADSVKGRFTISRDNAKNTVYLQMNSLKPEDTAVYYCAADSRSDPGDYWGQGNQVTVSS,low polyreactivity
21,QVQLVESGGGLVQAGGSLRLSCAASGRIFSTNAMGWYRQAPGKERELVATIRTSGGSTYYADSVKGRFTISRDNAKNTVYLQMNSLKPEDTAVYYCAARRFLHYTTYYGTGRYDYWGQGTQVTVSS,low polyreactivity
22,QVQLVESGGGLVQAGGSLRLSCAASGRIFSTNAMGWYRQAPWKERELVASISKSGGSTYYADSVKGRFTISRDNAKNTVYLQMNSLKPEDTAVYYCAASSYSTSYIRGDYWGQGTQVTVSS,low polyreactivity

row,Sequence,polyreactivity (PSR sort gate)
1,QVQLVESGGGLVQAGGSLRLSCAASGRIFSTYAMGWYRQAPGKERELVAAINSIGGRTYYADSVKGRFTISRDNAKNTVYLQMNSLKPEDTAVYYCAAGYRTRRGLGYYYWGQGTQVTVSS,high polyreactivity
2,QVQLVESGGGLVQAGGSLRLSCAASGRIFSTYTMGWYSQAPGKDRELVARSSWSAGRTYYADSVKGRFTISRDNAKNSVYLQMNSLKPEETAVYYCAADGYTQRGYDYWGQGTQVTVSS,high polyreactivity
3,QVQLVESGGGLVQAGGSLRLSCAASGRIFSYNAMGWYRQAPGKERELFAAISSDGSTYYADSVKGRFTISRDNAKNTVYLEMNSLKPEDTAVYYCAARQVVWFVYTTAQVGSYKVNYWGQGTQVNVSS,low polyreactivity
4,QVQLVESGGGLVQAGGSLRLSCAASGRIFSYNAMGWYRQAPGKERELVASISYSGTSTYYADSVKGRFTISRDNAKKTVYLQMNSLKPEDTAVYYCAALSRRRFGYWGQGTQVTVSS,high polyreactivity
5,QVQLVESGGGLVQAGGSLRLSCAASGRIFSYNTLMRWYRQAPGKERELVAAITFSSASTYYADSVKGRFTISRDNAKNTVYLQMNSLKPEDTAVYYCAAAIRSQSSKYYYWGQGTQVTVSS,low polyreactivity
6,QVQLVESGGGLVQAGGSLRLSCAASGRIFSYYAMGWYRQAPGKEREFVATITYAGGSTYYADSVKGRFTISRDNAKNTVYFQMNSLKPEDTAVYYCAARGYSYRGWRMDYWGQGTQVTVSS,high polyreactivity
7,QVQLVESGGGLVQAGGSLRLSCAASGRIFSYYAMGWYRQAPGKERELVAAINSDGSTDYADSVKGRFTISRDNAKNTVYLQMNSLKPEDTAVYYCAKVWSLGPTGFRAYVRVWYYYWGVGTQVTVSS,low polyreactivity
8,QVQLVESGGGLVQAGGSLRLSCAASGRIFSYYAMGWYRQAPGKERELVAAISWNGGSTYYADSVKGRFTISRDNAKNTVYLQMNSLKPEDTAVYYCIRLGYRTGYERDYWGQGTQVTVSS,high polyreactivity
9,QVQLVESGGGLVQAGGSLRLSCAASGRIFSYYAMGWYRQAPGKERELVAAISWSGGSTYYADSVKGRFTISRDNAKNTVYLQMNSLKPEDTAVYYCAAGVHWDRGDYWGQGTQVTVSS,low polyreactivity
10,QVQLVESGGGLVQAGGSLRLSCAASGRIFSYYAMGWYRQAPGKERELVAAITSGGRTNYADSVKGRFTISRDNAKNTVYLQMNSLNPEDTAVYYCAAIFGYGSTWCRWGKDDYWGQGTQVTVSS,high polyreactivity
11,QVQLVESGGGLVQAGGSLRLSCAASGRIFSYYARGWYRQAPGKERELVATINSGGSTNYADSVKGRFTISRDNAKNTVYLLMNSLKPEDTAVYYCAASPVWWYDYWGQGTQVTVSS,low polyreactivity
12,QVQLVESGGGLVQAGGSLRLSCAASGRIFSYYTMGWYRQAPGKERELVAAITSGDSTNYADSVKGRFTISRDNAKNTVYLQMNSLKPEDNAVYYCNARYSWWRSRVGSSHRPDGYWGQGTQVTVSS,high polyreactivity
13,QVQLVESGGGLVQAGGSLRLSCAASGRIFTAYDMGWYRQAPGKERELVAAITRSSGSTYYADSVKGRFTISRDNAKNTVYLQMNSLKGEDTAVYYCATDGEFWGYDSWGQGTQVTVSS,low polyreactivity
14,QVQLVESGGGLVQAGGSLRLSCAASGRIFTAYYAMGWYRQAPGKERELVASISSSGTYTYADSVKGRFTISRDNAKNTVYLQMNSLKPEDTAVYYCATRKLRTRRYDYGYCGQGTQVTVSS,low polyreactivity
15,QVQLVESGGGLVQAGGSLRLSCAASGRIFTDNAMGWYRQAPGKERELVAAISWDGSSTSYADSVKGRFTISRDNAKNTVYLQMNSLKPEDTAVYDCAAVLYSGLYWYRLDYWGQGTRVTVSS,low polyreactivity
16,QVQLVESGGGLVQAGGSLRLSCAASGRIFTFYAMGWYRQAPGKERELVAVITTGTSTTYADSVKGRVTISRDNAKNTVYLQMNSLKPEDTAVYYCAVESWSRVQGWLAHNYDYWGQGTQVTVSS,low polyreactivity
17,QVQLVESGGGLVQAGGSLRLSCAASGRIFTGNAMGWNRQAPGKERELVAAISASGSSTYYADSVKGRFTISRDNAKNTVYLQMNRLKPDDTAVYYCAADGWYGYYYWGQGTQVTVSS,high polyreactivity
18,QVQLVESGGGLVQAGGSLRLSCAASGRIFTGNAMGWSRQAPGKERELVAAISASGSSSYYADSVKGRFTISRDNAKNTVYLQMNSLNPEDTAVYYCAAEGWYCYYYWGQGTQVTVSS,high polyreactivity
19,QVQLVESGGGLVQAGGSLRLSCAASGRIFTGNAMGWYRQAPGKERELVAAITGRGGNTYYADSVKGRFTISRDNAKNTVYLQMNSLKPEDTAVYYCAKVFFHTPIVPEFEYWGQGTQVTVSS,low polyreactivity
20,QVQLVESGGGLVQAGGSLRLSCAASGRIFTGNAMGWYRQAPGKERELVASITYNGGRTYYADSVKGRFTISRDKAKNTVYLPMNRLKPEDTAVYYCNAGDYGFGYEYWGQGTQVTVSS,low polyreactivity
21,QVQLVESGGGLVQAGGSLRLSCAASGRIFTGYAMGWYRQAPGKEREFVAAITGRGGSTYYADSVKGRFTISRDNAKNTVYLLMNSLKPEDTAVYYCNALPRSPWYYRGDYWGQGTQVTVSS,high polyreactivity

# — the nanobody polyreactivity screen of Harvey et al. (2022)
